Measured values taken from article PMC11253593.

Key:
[1] = target: DdrI (DR0997), CRP family protein from Deinococcus radiodurans, untagged (Deinococcus radiodurans); experiment: SEC; gel filtration of the purified protein to check homogeneity and oligomeric state; also run with cAMP and Mn2+ added (dimer formation not affected)
[2] = target: eGFP-DdrI (DdrI with N-terminal fused eGFP) (Deinococcus radiodurans); experiment: as above

| Substance | stoichiometry N [1] | stoichiometry N [2] |
| --- | --- | --- |
| DdrI (DR0997), CRP family protein from Deinococcus radiodurans, untagged (natural protein) | 2 | – |
| eGFP-DdrI (DdrI with N-terminal fused eGFP) (natural protein) | – | 2 |
